Laboratory results as given in patent publication US20250304697A1 (ONECHAIN IMNUNOTHERAPEUTICS S L, published 2025).

What was measured:
[1] = molecular target: mCAR-CD1a (murine CAR-CD1a, scFv derived from the NA1/34.HLK clone) expressed on transduced T cells; experiment: FACS of mCD1a-CAR-T cells incubated with rCD1a (25 nM by the legend paragraph 24, 200 nM by Example 11 paragraph 349), detection with anti-HIS-APC; UT cells in the same gate 0,2% [cont.) B]
[2] = molecular target: T1, human recombinant protein extracellular domain of CD1a (rCD1a), produced with a 6xHis tag as a dimer with … (human, UniProt P06126 17-300; P61769 21-119); experiment: SPR, ratio of KD against mscFv-CD1a
T1 construct: Used soluble in flow cytometry on CAR-T cells (detected with anti-HIS-APC) and immobilized on CM5 chips in SPR; also called rCD1a-HIS; recombinant protein CD1a; not shown: 6xHis tag

[3] = molecular target: T1, human recombinant protein extracellular …; experiment: SPR, Biacore T-200, rCD1a immobilized on CM5 chip, soluble scFv, 1:1 binding fit, 298 K

Molecule	% of rCD1a positive bound cells [1] [%]	fold higher affinity than the murine scFv (mscFv-CD1a) [2] [fold]	Kd [3] [nM]	koff [3] [s⁻¹]	kon [3] [M⁻¹ s⁻¹]
human recombinant protein extracellular domain of CD1a (rCD1a), produced with a 6xHis tag as a dimer with b2-microglobulin (hB2M) (from UniProt P06126 17-300; P61769 21-119)	23.3				
h(2)scFv-CD1a: recombinant humanized (H2 version) scFv anti-CD1a with a 6xHis tag, from XtenCHO cells (scFv, also called hscFv-CD1a; humanized2_scFv-anti-CD1a; not shown: 6xHis tag) scFv: QVQLQQSGAEVKKPGASVKVSCKASGYAFSTYTMHWVRQAPGQGLEWMGYINPNSASTSYAQKFQGRVTMTADKSTNTAYMELSSLRSEDTAVYYCARGFYTMDYWGQGTLVTVSSGGGGSGGGGSGGGGSGGGGSRDIQMTQSPSSLSASVGDRVTITCQASQDINKYIAWYQFKPGKGPRLLIHYTSTLEPAIPSRFSGSGSGREYTFTISSLQPEDIATYYCLHYDNLPWTFGGGTKVEIKRA		2.4	21	0.0012	56300
mscFv-CD1a: recombinant murine scFv anti-CD1a with a 6xHis tag, from XtenCHO cells (scFv) scFv: QVQLQQSGAELARPGASVKMSCKASGYAFSTYTMHWVKQRPRQGLEWIGYINPNSASTSYNENFKDKATLTADKSSNTAYMHLSSLTSEDSAVYYCARGFYTMDYWGQGTSVTVSSGGGGSGGGGSGGGGSGGGGSRDIQMTQSPSSLSASLGGKVTITCQASQDINKYIAWYQFKPGKGPRLLIHYTSTLQPAIPSRFSGSGSGREYSFSISNLEPEDIATYYCLHYDNLPWTFGGGTKLEIKRAHHHHHH			50	0.00121	24600
